From PMC9736779, “Properties and Potential Antiproliferative Activity of Thrombin-Binding Aptamer (TBA) Derivatives with One or Two Additional G-Tetrads”

Molecular target: nucleolin (NCL) (Homo sapiens, UniProt P19338 1-710)
Assay: SPR; 70 mM KCl; SPR (Biacore X-100, CM5): 10 mM HEPES, 70 mM KCl, pH 7.4, 25 C; analyte 5-500 uM; two-state reaction fit
Conditions: protein: commercial

Sequence of nucleolin (NCL) (P19338 whole entry): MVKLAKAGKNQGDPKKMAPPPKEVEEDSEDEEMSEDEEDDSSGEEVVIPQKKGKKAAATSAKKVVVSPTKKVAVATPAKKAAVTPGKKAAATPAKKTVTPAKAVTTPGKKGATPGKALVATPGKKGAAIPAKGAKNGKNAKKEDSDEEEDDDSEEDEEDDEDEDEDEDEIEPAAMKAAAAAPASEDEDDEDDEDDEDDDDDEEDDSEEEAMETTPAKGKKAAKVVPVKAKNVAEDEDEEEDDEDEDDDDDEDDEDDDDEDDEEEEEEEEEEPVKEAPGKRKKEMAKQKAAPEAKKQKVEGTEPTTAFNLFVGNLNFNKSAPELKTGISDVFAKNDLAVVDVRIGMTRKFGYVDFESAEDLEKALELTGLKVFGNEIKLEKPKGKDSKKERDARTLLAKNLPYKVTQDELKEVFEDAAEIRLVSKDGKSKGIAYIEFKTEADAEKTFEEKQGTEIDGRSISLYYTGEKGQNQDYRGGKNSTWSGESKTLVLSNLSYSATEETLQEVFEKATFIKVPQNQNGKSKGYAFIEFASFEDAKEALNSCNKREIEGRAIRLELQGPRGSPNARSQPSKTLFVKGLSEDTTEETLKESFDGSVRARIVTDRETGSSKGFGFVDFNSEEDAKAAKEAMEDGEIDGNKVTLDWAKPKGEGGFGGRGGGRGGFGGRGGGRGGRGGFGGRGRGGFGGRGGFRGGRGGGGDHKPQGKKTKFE

B1: TBA (structured_DNA)
DNA: GGTTGGTGTGGTTGG
Antiparallel G4, intramolecular
  Kd: 62.5 µM

B2: TBAG3 (structured_DNA)
DNA: GGGTTGGGTGTGGGTTGGG
G4, one extra G-tetrad, intramolecular
  Kd: 1290 µM

B3: TBAG4 (structured_DNA)
DNA: GGGGTTGGGGTGTGGGGTTGGGG
Antiparallel G4, two extra G-tetrads, intramolecular
  Kd: 13.5 µM
